Measurements reported in article PMC4612324.

Target: Aβ 1-40 peptide (UniProt P05067)
Experiment: ELISA; Aβ1-40 peptide coated on Maxisorp plates (0.1 µg/ml, bicarbonate buffer pH 9.6); antibodies serially diluted in PBS/1 % BSA, 1 h at room temperature; detected with biotinylated anti-mouse IgG and streptavidin poly-HRP; relative affinity

EC50: 0.34 pM
Substance: chGantenerumab (mouse/human chimeric version of Gantenerumab with mouse IgG2a constant region) (antibody)
